The source of these data is patent US20260176307A1 (VECTORY THERAPEUTICS B V, published 2026).

Residue numbers refer to the chain shown, from its start.

Sequences and labels used below:
T1: non-phosphorylated C-terminal TDP-43 peptide NAGSGSGFNGGFGSSMDSKSSGWGM (human, N-terminally biotinylated)
T1 construct: Synthetic biotinylated peptide captured on streptavidin plates; also called non-phosphorylated TDP-43
T1 peptide: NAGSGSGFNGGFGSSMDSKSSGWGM

B1: anti-TDP43 clone C, scFv format (scFv)
scFv: QVQLVQSGAEVKKPGASVKVSCKASGFTFTEYSMHWVRQAPGQGLEWMGGINPNNGGTSYNQKFQGRVTMTRDTSTSTVYMELSSLRSEDTAVYYCARESWGQGTLVTVSSGGGGSGGGGSGGGGSDIVMTQSPLSLPVTPGEPASISCKSSQSLLHSDGKTYLNWYLQKPGQSPQLLIYLGSNRASGVPDRFSGSGSGTDFTLKISRVEAEDVGVYYCFQGTHFPHTFGGGTKVEIK
B2: anti-TDP43 clone I, scFv format (scFv)
scFv: B1 scFv with S59I, F220M
notes: also called VecTab I (as AAV5.2-encoded scFv)
B3: anti-TDP43 clone G, scFv format (scFv)
scFv: B1 scFv with R98S, G182V, N184K, R185L, A186K, F220M
notes: also called VecTab G (as AAV5.2-encoded scFv)
B4: anti-TDP43 clone B, scFv format (scFv)
scFv: B1 scFv with Y32L, G182A, N184R
notes: also called VecTab B (as AAV5.2-encoded scFv)
B5: anti-TDP43 clone O, full-length human IgG1 format (antibody, V domains shown)
VH: QVQLVQSGAEVKKPGASVKVSCKASGYTFTKYWMHWVRQAPGQGLEWMGEINPKNGRTNYNQKFQGRVTMTRDTSTSTVYMELSSLRSEDTAVYYCWRYMDYWGQGTLVTVSS
VL: DIVMTQSPLSLPVTPGEPASISCRSSQSLLHSNGYNYLDWYLQKPGQSPQLLIYKVSNRFSGVPDRFSGSGSGTDFTLKISRVEAEDVGVYYCLQHTHWPPTFGGGTKVEIK
notes: Tested as full-length human IgG1
B6: anti-TDP43 clone X, full-length human IgG1 format (antibody, V domains shown)
VH: B5 VH with K31S, Y32H, W33Y, M34L, E50I, K54S
VL: B5 VL with K55E
notes: as for B5
B7: anti-TDP43 clone C, full-length human IgG1 format (antibody, V domains shown)
VH: QVQLVQSGAEVKKPGASVKVSCKASGFTFTEYSMHWVRQAPGQGLEWMGGINPNNGGTSYNQKFQGRVTMTRDTSTSTVYMELSSLRSEDTAVYYCARESWGQGTLVTVSS
VL: DIVMTQSPLSLPVTPGEPASISCKSSQSLLHSDGKTYLNWYLQKPGQSPQLLIYLGSNRASGVPDRFSGSGSGTDFTLKISRVEAEDVGVYYCFQGTHFPHTFGGGTKVEIK
notes: as for B5
B8: anti-TDP43 clone I, full-length human IgG1 format (antibody, V domains shown)
VH: B7 VH with S59I
VL: B7 VL with F94M
notes: as for B5
B9: anti-TDP43 clone G, full-length human IgG1 format (antibody, V domains shown)
VH: B7 VH with R98S
VL: B7 VL with G56V, N58K, R59L, A60K, F94M
notes: as for B5
B10: anti-TDP43 clone S, scFv format (scFv)
scFv: QVQLVQSGAEVKKPGASVKVSCKASGYTFTKYWMHWVRQAPGQGLEWMGEINPSNGRTNYPQKFQGRVTMTRDTSTSTVYMELSSLRSEDTAVYYCWRYMDYWGQGTLVTVSSGGGGSGGGGSGGGGSDIVMTQSPLSLPVTPGEPASISCRSSQSLLHSNGYNYLDWYLQKPGQSPQLLIYKVSNRFTGVPDRFSGSGSGTDFTLKISRVEAEDVGVYYCMQHTHWPPAFGGGTKVEIK
notes: also called VecTab S (as AAV5.2-encoded scFv)
B11: anti-TDP43 clone X, scFv format (scFv)
scFv: B10 scFv with K31S, Y32H, W33Y, M34L, E50I, P61N, K183E, T189S, M222L, A230T

The target of the first experiment is T1, non-phosphorylated C-terminal TDP-43 …. As to the kind of experiment: ELISA, biotinylated peptide on streptavidin plate, scFv format, rabbit anti-G4S and anti-rabbit HRP. Here is the method:
(§1) The ability of clones to bind phosphorylated TDP-43 and/or non-phosphorylated TDP-43 was assessed using N-terminally biotinylated TDP-43 peptides having the following sequences: […] (SEQ ID NO: 218; non-phosphorylated); […] {PSER} SGWGM (SEQ ID NO: 219; phosphorylated S409); […] {PSER} GWGM (SEQ ID NO: 220; phosphorylated S410); and […] {PSER} {PSER} GWGM (SEQ ID NO: 221; phosphorylated S409/S410). Peptides were dissolved in 100% DMSO, aliquoted, and stored in −80° C. before use. Wells were incubated with 100 μL (5 μg/mL) of the peptides on streptavidin plates overnight at 4° C. The plates were then washed 3× in PBST wash buffer. Antibody clones B, C, G, I, O, S, U, and X, and non-binding controls (VRC07 for full-length IgG, and anti-methamphetamine clone 6H4 as control for the scFv experiments) were made in full-length human IgG₁ and scFv formats (IpA), and dilutions were prepared in blocking buffer (2% BSA). 100 μL/well of the dilutions were added to coated plates and the plates were incubated at RT for 1 hour. The plates were subsequently washed 3× with 250 μL/well wash buffer. 100 μL/well of primary antibody CEN63-C13 Rb-a-G4S (IpA) diluted in blocking buffer (2 μg/ml) was added and the plates were incubated for 1 hour at RT followed by 3× washing in PBST. For detection, 100 μL/well secondary antibodies (goat anti human IgG₁ HRP (Jackson ImmunoResearch) or goat anti-rabbit HRP for scFv (Promega)) diluted in blocking buffer (1:5000) was added to the wells and the plates were incubated for 1 hour at RT. The plates were subsequently washed 3× and 100 μL/well of TMB ready solution was added to the wells, followed by 3-4 minutes incubation in the dark. The reaction was stopped with 1M H₂SO₄ added to the wells (100 μL/well), and absorption measured on a GloMax plate reader (Promega) at […].
For orientation: An ELISA detects its analyte on a solid surface through an enzyme-linked reagent.
Turning to B1, the binding result is listed as “binds”.

For the molecule B2, the binding result is reported as “binds”.

On to B3, for which the binding result is on record as “binds”.

For B4, the binding result was “binds”.

The target is the same in a further experiment. Briefly: ELISA, biotinylated peptide on streptavidin plate, IgG1 format, anti-human IgG1 HRP. As for the experimental part:
as §1
For B5, the binding result is “binds”.

With B6, the binding result is “binds”.

Take B7: the binding result is “binds”.

B8: the binding result is recorded as “binds”.

In the case of B9, the binding result is “binds”.

The target is the same in the next experiment. Briefly: ELISA, biotinylated peptide on streptavidin plate, scFv format, rabbit anti-G4S and anti-rabbit HRP; profile referred to: less efficient at binding non-phosphorylated TDP-43. Here is the method:
as §1, with “100 μL/well of primary antibody CEN63-C13 Rb-a-G4S (IpA) diluted in blocking buffer (2 μg/ml) was added and the plates were incubated for 1 hour at RT followed by 3× washing in PBST. For detection, 100 μL/well secondary antibodies (goat anti human IgG₁ HRP (Jackson ImmunoResearch) or goat anti-rabbit HRP for scFv (Promega)) diluted in blocking buffer (1:5000) was added to the wells and the plates were incubated for 1 hour at RT.” left out
Turning to B10, the binding result is recorded as “binds”.

In the case of B11, the binding result was “binds”.
